Values quoted from earlier work in paper PMC4927088.

Biological target: LPL (UniProt P11151)
UniProt P11151, sequence (P11151 29-478): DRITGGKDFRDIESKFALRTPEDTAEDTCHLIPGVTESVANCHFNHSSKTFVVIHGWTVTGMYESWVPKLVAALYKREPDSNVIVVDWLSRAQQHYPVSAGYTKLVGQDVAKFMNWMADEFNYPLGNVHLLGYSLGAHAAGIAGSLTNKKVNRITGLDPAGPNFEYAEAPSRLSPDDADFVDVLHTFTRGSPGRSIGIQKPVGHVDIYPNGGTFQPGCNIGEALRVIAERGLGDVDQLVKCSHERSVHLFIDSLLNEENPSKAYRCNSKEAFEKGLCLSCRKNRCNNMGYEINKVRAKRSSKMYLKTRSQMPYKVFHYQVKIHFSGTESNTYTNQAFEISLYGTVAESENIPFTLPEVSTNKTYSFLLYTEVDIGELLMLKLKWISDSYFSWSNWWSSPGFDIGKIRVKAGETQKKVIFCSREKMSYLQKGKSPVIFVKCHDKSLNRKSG

With GPIHBP1 (from UniProt Q8IV16) as the substance, how does the Kd read?
Its Kd is 25 nM.
